Patent US20210214460A1 (AstraZeneca / MedImmune, published 2021)
Read-outs that look alike come from different tables or passages of the source.

T1: membrane-bound human BCMA (human, UniProt Q02223 1-184)
T1 sequence (looked up): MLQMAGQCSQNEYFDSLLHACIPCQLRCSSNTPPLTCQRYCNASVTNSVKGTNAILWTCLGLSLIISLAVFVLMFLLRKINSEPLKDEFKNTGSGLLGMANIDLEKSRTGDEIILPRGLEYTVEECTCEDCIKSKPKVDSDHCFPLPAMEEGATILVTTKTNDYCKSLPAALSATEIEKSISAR

T2: monomeric human sBCMA (GenScript) (human, UniProt Q02223 1-54)
T2 construct: extracellular domain; also called monomeric BCMA; monomeric (soluble) BCMA
T2 sequence (looked up): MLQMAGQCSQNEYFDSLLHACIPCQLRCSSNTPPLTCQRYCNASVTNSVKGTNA

T3: soluble BCMA (sBCMA) in conditioned media collected from Ad293 cells expressing human BCMA (human, UniProt Q02223 1-54)
T3 sequence (looked up): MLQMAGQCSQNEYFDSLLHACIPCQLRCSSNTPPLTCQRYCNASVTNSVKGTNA


Columns and labels:
[1] = target: soluble BCMA (sBCMA) in conditioned media collected from Ad293 cells expressing human BCMA (human) (UniProt Q02223); assay: cell-based or functional assay
[2] = target: T1, membrane-bound human BCMA; assay: cell-based or functional assay
[3] = target: T2, monomeric human sBCMA (GenScript); assay: SPR (ProteOn XPR36), antibody captured by anti-Fc, sBCMA 100-6.25 nM as analyte
Procedure: The binding of 15B2GL monoclonal antibody and optimized clones I09, L15, P10, N22, and M02 (described in Example 1) was assessed using monomeric human sBCMA (GenScript, Piscataway, N.J.) using a ProteOn™ XPR36 instrument (Bio-Rad, Hercules, Calif.). The binding of J6M0 also was assessed for comparison. Standard amine coupling was used to immobilize 25 μg/ml anti-Fc polyclonal antibody (Jackson ImmunoResearch, West Grove, Pa.) prepared in 10 mM sodium acetate buffer (pH 4.5) to the surface of a ProteOn™ GLC biosensor chip (Bio-Rad, Hercules, Calif.) pre-activated with 20 mM EDAC (1-ethyl-3-(3-dimethylaminopropyl)carbodiimide hydrochloride) and 5 mM Sulfo-NHS (N-hydroxysulfosuccinimide) at a density of ˜200-600 resonance units (RU). 15B2GL, I09, L15, P10, N22, M02, and J6M0 were subsequently injected at a concentration of 1 μg/ml for capture by the immobilized anti-Fc polyclonal antibody. The sensorgram was recorded by flowing two-fold serial dilutions of sBCMA prepared in PBS (pH 7.4) with 0.005% (v/v) Tween®-20, ranging from 100-6.25 nM, over the captured surface for 150 seconds at 75 μL/minute with dissociation time of 600 seconds. ProteOn™ data analysis software was used to analyze the data.

[4] = target: T1, membrane-bound human BCMA; assay: flow cytometry on NCI-H929 cells (endogenous BCMA), printed as apparent affinity
Procedure: (§1) Binding of 15B2GL, I09, L15, and J6M0 to membrane-bound human BCMA was evaluated using flow cytometry in multiple myeloma and plasma cell leukemia cell lines that endogenously express BCMA (NCI-H929 and MM.1S, respectively). Binding of 15B2GL, 109, L15 to membrane-bound human BCMA was also evaluated in Ad293 cells expressing human BCMA. Binding assays were performed by incubating the anti-BCMA antibodies with 200,000 cells for 30 minutes at 4° C. followed by two washes with PBS+2% FBS (FACS Buffer). A range of antibody concentrations were evaluated using a 12-point, 3-fold dilution series. Cells were then incubated with 5 ug/mL goat-anti human IgG-AF647 secondary antibodies (Thermo Fisher Scientific, Waltham, Mass.) at 4° C., followed by two washes in PBS+2% FBS. Cells were resuspended in 200 uL PBS+2% FBS+DAPI.
(§2) Fluorescence of live, single cells was measured using a BD Biosciences LSRII cytometer and BD FACSDiva™ software (BD Biosciences, San Jose, Calif.). Data were analyzed using FlowJo™ software (FlowJo, LLC, Ashland, Oreg.). Mean fluorescence intensity values were used to determine percentage bound and EC50 was determined using Prism™ software (GraphPad Software Inc, La Jolla, Calif.).

[5] = target: T1, membrane-bound human BCMA; assay: flow cytometry on MM.1S cells (endogenous BCMA), printed as apparent affinity
Procedure: as §1, §2

[6] = target: T1, membrane-bound human BCMA; assay: cell-based or functional assay; remark: listed apart in the source
[7] = target: T3, soluble BCMA (sBCMA) in conditioned …; assay: cell-based or functional assay
[8] = target: T1, membrane-bound human BCMA; assay: cell-based or functional assay; remark: listed apart in the source

Binder | Fold loss of potency, killing of MM.1S cells with 0 ng/mL sBCMA (reference) [1] [fold] | Fold loss of potency, killing of MM.1S cells with 75 ng/mL sBCMA [1] [fold] | Fold loss of potency, killing of MM.1S cells with 270 ng/mL sBCMA [1] [fold] | Fold loss of potency, killing of MM.1S cells with 720 ng/mL sBCMA [1] [fold] | IC50 (ng/mL) of killing of MM.1S cells with 0 ng/mL sBCMA [2] [ng/mL] | IC50 (ng/mL) of killing of MM.1S cells with 75 ng/mL sBCMA [2] [ng/mL] | IC50 (ng/mL) of killing of MM.1S cells with 270 ng/mL sBCMA [2] [ng/mL] | IC50 (ng/mL) of killing of MM.1S cells with 720 ng/mL sBCMA [2] [ng/mL] | IC50 (ng/mL) of killing of MM.1S cells with 0 ng/mL sBCMA [6] [ng/mL] | IC50 (ng/mL) of killing of MM.1S cells with 75 ng/mL sBCMA [6] [ng/mL] | IC50 (ng/mL) of killing of MM.1S cells with 270 ng/mL sBCMA [6] [ng/mL] | IC50 (ng/mL) of killing of MM.1S cells with 720 ng/mL sBCMA [6] [ng/mL] | Fold loss of potency, killing of MM.1S cells with 0 ng/mL sBCMA (reference) [7] [fold] | Fold loss of potency, killing of MM.1S cells with 75 ng/mL sBCMA [7] [fold] | Fold loss of potency, killing of MM.1S cells with 270 ng/mL sBCMA [7] [fold] | Fold loss of potency, killing of MM.1S cells with 720 ng/mL sBCMA [7] [fold] | other results
J6M0-SG3249 antibody-drug conjugate (antibody, INN chains, looked up, V domains shown, SG3249 (tesirine) drug payload) VH: QVQLVQSGAEVKKPGSSVKVSCKASGGTFSNYWMHWVRQAPGQGLEWMGATYRGHSDTYYNQKFKGRVTITADKSTSTAYMELSSLRSEDTAVYYCARGAIYDGYDVLDNWGQGTLVTVSS VL: DIQMTQSPSSLSASVGDRVTITCSASQDISNYLNWYQQKPGKAPKLLIYYTSNLHSGVPSRFSGSGSGTDFTLTISSLQPEDFATYYCQQYRKLPWTFGQGTKLEIK | 1 | 2.66 | 6.7 | 19.3 | 4.82 | 12.8 | 32.3 | 92.9 | – | – | – | – | – | – | – | – | –
anti-BCMA antibody J6M0 (antibody, V domains shown) VH: QVQLVQSGAEVKKPGSSVKVSCKASGGTFSNYWMHWVRQAPGQGLEWMGATYRGHSDTYYNQKFKGRVTITADKSTSTAYMELSSLRSEDTAVYYCARGAIYDGYDVLDNWGQGTLVTVSS VL: DIQMTQSPSSLSASVGDRVTITCSASQDISNYLNWYQQKPGKAPKLLIYYTSNLHSGVPSRFSGSGSGTDFTLTISSLQPEDFATYYCQQYRKLPWTFGQGTKLEIK | – | – | – | – | – | – | – | – | – | – | – | – | – | – | – | – | Kd [3]: 1 nM; EC50 [4]: 6.02 nM; EC50 [5]: 6.65 nM
J6M0-mc-MMAF antibody-drug conjugate (antibody, INN chains, looked up, V domains shown, mc-MMAF drug payload) VH: QVQLVQSGAEVKKPGSSVKVSCKASGGTFSNYWMHWVRQAPGQGLEWMGATYRGHSDTYYNQKFKGRVTITADKSTSTAYMELSSLRSEDTAVYYCARGAIYDGYDVLDNWGQGTLVTVSS VL: DIQMTQSPSSLSASVGDRVTITCSASQDISNYLNWYQQKPGKAPKLLIYYTSNLHSGVPSRFSGSGSGTDFTLTISSLQPEDFATYYCQQYRKLPWTFGQGTKLEIK | 1 | 1.9 | 5.45 | 49.8 | 29.3 | 55.5 | 160 | 1460 | – | – | – | – | – | – | – | – | –
15B2GL-SG3249 antibody-drug conjugate (antibody, V domains shown, PBD payload SG3249 conjugated site-specifically; residue not stated; DAR 1.82) VH: EVQLVESGGGLVKPGGSLRLSCAASGFTFRSYSMNWVRQAPGKGLEWVSSISGSSNYIYYADSVKGRFTISRDNAKNSLYLQMNSLRAEDTAVYYCARGGNYYVEYFQYWGQGTLVTVSS VL: EIVLTQSPGTLSLSPGERATLSCRASQYISSNYLAWYQQKPGQAPRLLIYGASNRATGIPDRFSGSGSGTDFTLTISRLEPEDFAVYYCQQYGSSPITFGQGTKLEIK | – | – | – | – | – | – | – | – | 14.5 | 16.1 | 22.9 | 29.1 | 1 | 1.11 | 1.58 | 2.01 | IC50 (ng/mL), in vitro cytotoxicity (CellTiter-Glo, 96 h), EJM cells [8]: 153 ng/mL; IC50 (ng/mL), in vitro cytotoxicity (CellTiter-Glo, 96 h), JJN-3 cells [8]: 36.3 ng/mL; IC50 (ng/mL), in vitro cytotoxicity (CellTiter-Glo, 96 h), L-363 cells [8]: 31.4 ng/mL; IC50 (ng/mL), in vitro cytotoxicity (CellTiter-Glo, 96 h), MM.1R cells [8]: 8.64 ng/mL; IC50 (ng/mL), in vitro cytotoxicity (CellTiter-Glo, 96 h), MM.1S cells [8]: 26.8 ng/mL; IC50 (ng/mL), in vitro cytotoxicity (CellTiter-Glo, 96 h), NCI-H929 cells [8]: 5.99 ng/mL; IC50 (ng/mL), in vitro cytotoxicity (CellTiter-Glo, 96 h), OPM-2 cells [8]: 201 ng/mL; IC50 (ng/mL), in vitro cytotoxicity (CellTiter-Glo, 96 h), U266B1 cells [8]: 39.7 ng/mL
I09-SG3249 antibody-drug conjugate (antibody, V domains shown, PBD payload SG3249 conjugated site-specifically; residue not stated; DAR 1.82) VH: EVQLVESGGGLVKPGGSLRLSCAASGFTFSSYSMNWVRQAPGKGLEWVSSISGSSNYIYYADSVKGRFTISRDNAKNSLYLQMNSLRAEDTAVYYCARGGNYFVEYFQQWGQGTLVTVSS VL: EIVLTQSPGTLSLSPGERATLSCRASQYISSNYLAWYQQKPGQAPRLLIYGASNRATGIPDRFSGSGSGTDFTLTISRLEPEDFAVYYCQQYSSDPITFGQGTKLEIK | – | – | – | – | – | – | – | – | 2.81 | 3.79 | 5.55 | 16.2 | 1 | 1.35 | 1.98 | 5.75 | –
